Tests used:
[1] = molecular target: T1, human CD3 epsilon chain (CD3ε) (human, UniProt P07766 22-207); assay: FACS on isolated human T cells; FITC anti-human light chain secondary
T1 construct: also called CD3ε on human T cells; human CD3ε
Description: (§1) The heterodimeric bispecific antibodies described in Example 1 were produced in HEK 293 cells and were assayed by fluorescence activated cell sorting (FACS) for binding to T cells, which express CD3ε, and to a human ovarian cancer cell line, Ovcar-8, which expresses mesothelin. Briefly, the heterodimeric bispecific antibodies were incubated with about 50,000 Ovcar-8 cells or isolated human or cynomolgus monkey T cells at 4° C. for one hour. The cells were then washed and stained with a fluorescein isothiocyanate (FITC)-conjugated anti-human light chain secondary antibody and analyzed by flow cytometry. The relative binding was represented by the geometric mean of fluorescence intensity.

[2] = molecular target: T2, cynomolgus monkey CD3 epsilon chain (CD3ε) (cynomolgus monkey (Macaca fascicularis), UniProt Q95LI5 22-198); assay: cell-based or functional assay
T2 chain: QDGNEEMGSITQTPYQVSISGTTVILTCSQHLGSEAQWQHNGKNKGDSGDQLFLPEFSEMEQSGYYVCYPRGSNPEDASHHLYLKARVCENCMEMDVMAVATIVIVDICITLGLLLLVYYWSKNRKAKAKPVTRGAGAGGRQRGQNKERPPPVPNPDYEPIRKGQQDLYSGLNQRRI

[3] = molecular target: T2, cynomolgus monkey CD3 epsilon chain …; assay: FACS on isolated cynomolgus monkey T cells; FITC anti-human light chain secondary
Description: as §1

T1 sequence (P07766 22-207 limits assumed): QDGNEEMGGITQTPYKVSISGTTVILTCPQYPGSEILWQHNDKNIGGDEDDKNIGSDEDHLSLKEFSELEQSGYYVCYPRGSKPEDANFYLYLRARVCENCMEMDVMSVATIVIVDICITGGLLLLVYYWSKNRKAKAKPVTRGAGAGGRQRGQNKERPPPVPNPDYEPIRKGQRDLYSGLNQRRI

B1: P57216.9 (anti-MSLN/CD3ε heterodimeric bispecific antibody) (bispecific antibody)
chain 1: QVQLQESGPGLVKPSQTLSLTCTVSGGSINNNNYYWTWIRQHPGKGLEWIGYIYYSGSTFYNPSLKSRVTISVDTSKTQFSLKLSSVTAADTAVYYCAREDTMTGLDVWGQGTLVTVSSASTKGPEVQLVESGGGLVKPGVSLRLSCAASGFTFSRYSMNWVRQAPGKGLEWVSSISSSGTYIKYADSVKGRFTISRDNAKNSLNLQMNSLRAEDTAVYYCARDRDRYPLDYWGQGTLVTVSSASTKGPSVFPLAPCSRSTSESTAALGCLVKDYFPEPVTVSWNSGALTSGVHTFPAVLQSSGLYSLSSVVTVPSSNFGTQTYTCNVDHKPSNTKVDKTVGGGGSAAAVPRDLEVVAATPTSLLISWDAPHHGVAYYRITYGETGGNSPVQEFTVPGSKSTATISGLKPGVDYTINVYAVLAYPRGYPLSKPISINYRTDYKDDDDKGSSHHHHHH
chain 2: DIQMTQSPSSLSASVGDRVTITCRASQSINNYLNWYQQKPGKAPTLLIYAASSLQSGVPSRFSGSRSGTDFTLTISSLQPEDFAAYFCQQTYSNPTFGQGTKVEVKRTVAAPSSYELTQPPSVSVSPGQTARITCSGDALPKKYAYWYQQKSGQAPVLVIYEATKRPSGIPERFSGSSSGTMATLTLSGAQVEDEADYYCYSTDSTNYHWVFGGGTKLTVLGQPKAAPSVTLFPPSSEELQANKATLVCLISDFYPGAVTVAWKADSSPVKAGVETTTPSKQSNNKYAASSYLSLTPEQWKSHRSYSCQVTHEGSTVEKTVAPTECS
In the case of B1, the “FACS binding (geometric mean)” value [1] is reported as 103 geometric mean of fluorescence intensity.

B2: P69058.3 (anti-MSLN/CD3ε heterodimeric bispecific antibody) (bispecific antibody)
chain 1: QVQLQESGPGLVKPSQTLSLTCTVSGGSINNNNYYWTWIRQHPGKGLEWIGYIYYSGSTFYNPSLKSRVTISVDTSKTQFSLKLSSVTAADTAVYYCAREDTMTGLDVWGQGTLVTVSSGGGGSGGGGSSSYELTQPPSVSVSPGQTARITCSGDALPKKYAYWYQQKSGQAPVLVIYEATKRPSGIPERFSGSSSGTMATLTLSGAQVEDEADYYCYSTDSTNYHWVFGGGTKLTVLGASTKGPSVFPLAPCSRSTSESTAALGCLVKDYFPEPVTVSWNSGALTSGVHTFPAVLQSSGLYSLSSVVTVPSSNFGTQTYTCNVDHKPSNTKVDKTVGGGGSAAAVPRDLEVVAATPTSLLISWDAPHHGVAYYRITYGETGGNSPVQEFTVPGSKSTATISGLKPGVDYTINVYAVLAYPRGYPLSKPISINYRTDYKDDDDKGSSHHHHHH
chain 2: EVQLVESGGGLVKPGVSLRLSCAASGFTFSRYGMNWVRQAPGKGLEWVSSISSSGTYIKYADSVKGRFTISRDNAKNSLNLQMNSLRAEDTAVYYCARDRDRYPLDYWGQGTLVTVSSGGGGSGGGGSDIQMTQSPSSLSASVGDRVTITCRASQSINNYLNWYQQKPGKAPTLLIYAASSLQSGVPSRFSGSRSGTDFTLTISSLQPEDFAAYFCQQTYSNPTFGQGTKVEVKRTVAAPSVFIFPPSDEQLKSGTASVVCLLNNFYPREAKVQWKVDNALQSGNSQESVTEQDSKDSTYSLSSTLTLSKADYEKHKVYACEVTHQGLSSPVTKSFNRGEC
notes: VH(CD3ε)-linker-VL(MSLN)-CL
For B2, the “FACS binding (geometric mean)” value [1] was 290 geometric mean of fluorescence intensity.

B3: H69070.4 (anti-MSLN/CD3ε heterodimeric bispecific antibody) (bispecific antibody)
chain 1: QVQLVESGGGVVQPGRSLRLSCAASGFTFSSYGMHWVRQAPGKGLEWVAVISYPGNTKYYADSVKGRFTISRDNSKNTLYLQMNSLRAEDTAVYFCARDQKEWRLIFDYWGQGTLVTVSSASTKGPQVQLQESGPGLVKPSETLSLTCTVSGGSIISHYWSWIRQPPGKGLEWIGYIYYSGSTNYNPSLKSRVTISVDTSKNQFSLKLTSVTAADTAVYYCARDGWSAFDYWGQGTLVTVSSASTKGPSVFPLAPCSRSTSESTAALGCLVKDYFPEPVTVSWNSGALTSGVHTFPAVLQSSGLYSLSSVVTVPSSNFGTQTYTCNVDHKPSNTKVDKTVGGGGSAAAVPRDLEVVAATPTSLLISWDAPHHGVAYYRITYGETGGNSPVQEFTVPGSKSTATISGLKPGVDYTINVYAVLAYPRGYPLSKPISINYRTDYKDDDDKGSSHHHHHH
chain 2: DIQMTQSPSSVSASVGDRVTITCRASQGISSWLAWYQQKPGKAPKLLIYAASSLQSGVPSRFSGSGSGAAFTLTISSLQPEDFATYFCQQANSFPLTFAGGTKVDIKRTVAAPDIQMTQSPSSLSASVGDRVTITCRASQGIRNALGWYQQKPGKAPKRLIYAASSLQSGVPSRFSGSGSGTEFTLTISSLQPEDFATYYCLQHNSYPRTFGQGTKVEIRRTVAAPSVFIFPPSDEQLKSGTASVVCLLNNFYPREAKVQWKVDNALQSGNSQESVTEQDSKDSTYSLSSTLTLSKADYEKHKVYACEVTHQGLSSPVTKSFNRGEC
B3 was tested, and the “Cyno TDCC EC50 (pM), Ovcar-8 target cells with cynomolgus monkey T cells” value [2] was 3 pM, the “Cyno TDCC Max killing (%), Ovcar-8 target cells with cynomolgus monkey T cells” value [2] was 88% and the “FACS binding (geometric mean)” value [1] was 9 geometric mean of fluorescence intensity. For the same binder, the “FACS binding (geometric mean)” value [3] was 127 geometric mean of fluorescence intensity.

B4: H69071.4 (anti-MSLN/CD3ε heterodimeric bispecific antibody) (bispecific antibody)
chain 1: QVQLQESGPGLVKPSQTLSLTCTVSGGSINNNNYYWTWIRQHPGKGLEWIGYIYYSGSTFYNPSLKSRVTISVDTSKTQFSLKLSSVTAADTAVYYCAREDTMTGLDVWGQGTLVTVSSGGGGSGGGGSDIQMTQSPSSVSASVGDRVTITCRASQGISSWLAWYQQKPGKAPKLLIYAASSLQSGVPSRFSGSGSGAAFTLTISSLQPEDFATYFCQQANSFPLTFAGGTKVDIKRASTKGPSVFPLAPCSRSTSESTAALGCLVKDYFPEPVTVSWNSGALTSGVHTFPAVLQSSGLYSLSSVVTVPSSNFGTQTYTCNVDHKPSNTKVDKTVGGGGSAAAVPRDLEVVAATPTSLLISWDAPHHGVAYYRITYGETGGNSPVQEFTVPGSKSTATISGLKPGVDYTINVYAVLAYPRGYPLSKPISINYRTDYKDDDDKGSSHHHHHH
chain 2: QVQLVESGGGVVQPGRSLRLSCAASGFTFSSYGMHWVRQAPGKGLEWVAVISYPGNTKYYADSVKGRFTISRDNSKNTLYLQMNSLRAEDTAVYFCARDQKEWRLIFDYWGQGTLVTVSSGGGGSGGGGSDIQMTQSPSSLSASVGDRVTITCRASQSINNYLNWYQQKPGKAPTLLIYAASSLQSGVPSRFSGSRSGTDFTLTISSLQPEDFAAYFCQQTYSNPTFGQGTKVEVKRTVAAPSVFIFPPSDEQLKSGTASVVCLLNNFYPREAKVQWKVDNALQSGNSQESVTEQDSKDSTYSLSSTLTLSKADYEKHKVYACEVTHQGLSSPVTKSFNRGEC
In the case of B4, the “Cyno TDCC EC50 (pM), Ovcar-8 target cells with cynomolgus monkey T cells” value [2] is reported as 3.2 pM, the “Cyno TDCC Max killing (%), Ovcar-8 target cells with cynomolgus monkey T cells” value [2] is reported as 88% and the “FACS binding (geometric mean)” value [1] is reported as 16 geometric mean of fluorescence intensity. The “FACS binding (geometric mean)” value [3] was 121 geometric mean of fluorescence intensity.

B5: P69059.3 (anti-MSLN/CD3ε heterodimeric bispecific antibody) (bispecific antibody)
chain 1: SYELTQPPSVSVSPGQTARITCSGDALPKKYAYWYQQKSGQAPVLVIYEATKRPSGIPERFSGSSSGTMATLTLSGAQVEDEADYYCYSTDSTNYHWVFGGGTKLTVLGGGGGSGGGGSQVQLQESGPGLVKPSQTLSLTCTVSGGSINNNNYYWTWIRQHPGKGLEWIGYIYYSGSTFYNPSLKSRVTISVDTSKTQFSLKLSSVTAADTAVYYCAREDTMTGLDVWGQGTTVTVSSASTKGPSVFPLAPCSRSTSESTAALGCLVKDYFPEPVTVSWNSGALTSGVHTFPAVLQSSGLYSLSSVVTVPSSNFGTQTYTCNVDHKPSNTKVDKTVGGGGSAAAVPRDLEVVAATPTSLLISWDAPHHGVAYYRITYGETGGNSPVQEFTVPGSKSTATISGLKPGVDYTINVYAVLAYPRGYPLSKPISINYRTDYKDDDDKGSSHHHHHH
chain 2: DIQMTQSPSSLSASVGDRVTITCRASQSINNYLNWYQQKPGKAPTLLIYAASSLQSGVPSRFSGSRSGTDFTLTISSLQPEDFAAYFCQQTYSNPTFGQGTKVEVKGGGGSGGGGSEVQLVESGGGLVKPGVSLRLSCAASGFTFSRYSMNWVRQAPGKGLEWVSSISSSGTYIKYADSVKGRFTISRDNAKNSLNLQMNSLRAEDTAVYYCARDRDRYPLDYWGQGTLVTVSSRTVAAPSVFIFPPSDEQLKSGTASVVCLLNNFYPREAKVQWKVDNALQSGNSQESVTEQDSKDSTYSLSSTLTLSKADYEKHKVYACEVTHQGLSSPVTKSFNRGEC
notes: VL(MSLN)-linker-VH(CD3ε)-CL
For B5, the “FACS binding (geometric mean)” value [1] was 179 geometric mean of fluorescence intensity.

B6: H71362.2 (anti-MSLN/CD3ε heterodimeric bispecific antibody) (bispecific antibody)
chain 1: EVQLVESGGGLVKPGVSLRLSCAASGFTFSRYGMNWVRQAPGKGLEWVSSISSSGTYIKYADSVKGRFTISRDNAKNSLNLQMNSLRAEDTAVYYCARDRDRYPLDYWGQGTLVTVSSASTKGPQVQLQESGPGLVKPSETLSLTCTVSGGSIISHYWSWIRQPPGKGLEWIGYIYYSGSTNYNPSLKSRVTISVDTSKNQFSLKLTSVTAADTAVYYCARDGWSAFDYWGQGTLVTVSSASTKGPSVFPLAPCSRSTSESTAALGCLVKDYFPEPVTVSWNSGALTSGVHTFPAVLQSSGLYSLSSVVTVPSSNFGTQTYTCNVDHKPSNTKVDKTVGGGGSAAAVPRDLEVVAATPTSLLISWDAIGLYPYYYRITYGETGGNSPVQEFTVPGSKSTATISGLKPGVDYTITVYAVSGIFGWNNSKPISINYRTGSSDYKDDDDKGSSHHHHHH
chain 2: SYELTQPPSVSVSPGQTARITCSGDALPKKYAYWYQQKSGQAPVLVIYEATKRPSGIPERFSGSSSGTMATLTLSGAQVEDEADYYCYSTDSTNYHWVFGGGTKLTVLGTVAAPDIQMTQSPSSLSASVGDRVTITCRASQGIRNALGWYQQKPGKAPKRLIYAASSLQSGVPSRFSGSGSGTEFTLTISSLQPEDFATYYCLQHNSYPRTFGQGTKVEIRRTVAAPSVFIFPPSDEQLKSGTASVVCLLNNFYPREAKVQWKVDNALQSGNSQESVTEQDSKDSTYSLSSTLTLSKADYEKHKVYACEVTHQGLSSPVTKSFNRGEC
For B6, the “FACS binding (geometric mean)” value [1] was 354 geometric mean of fluorescence intensity.

Reference: patent publication US20160115241A1 (Amgen, published 2016)
